Assay results: PMC7156504

Key:
[1] = biological target: scFvWFL, single chain variant (scFv) of MEDI1912 (human); assay: cross-linking; scFv 15 µM in 100 mM sodium phosphate pH 7.4, d0/d4-BS3 (50:50) at 50x, 100x, 200x and 500x molar excess, 30 min at 25 °C; SDS-PAGE densitometry and LC-MS/MS of the dimer bands
[2] = biological target: scFvSTT, scFv of MEDI1912 with W35S, F36T and L64T in VH (human); assay: as above

B1: scFvWFL, single chain variant (scFv) of MEDI1912 (scFv, V domains shown)
VH: QVQLVQSGAEVKKPGSSVKVSCKASGGTFWFGAFTWVRQAPGQGLEWMGGIIPIFGLTNLAQNFQGRVTITADESTSTVYMELSSLRSEDTAVYYCARSSRIYDLNPSLTAYYDMDVWGQGTMVTVSS
VL: QSVLTQPPSVSAAPGQKVTISCSGSSSDIGNNYVSWYQQLPGTAPKLLIYDNNKRPSGIPDRFSGSKSGTSATLGITGLQTGDEADYYCGTWDSSLSAWVFGGGTKLTVL
B1 showed a percent incorporated into higher-order oligomers [1] of 45%.

B2: scFvSTT, scFv of MEDI1912 with W35S, F36T and L64T in VH (scFv, V domains shown)
VH: QVQLVQSGAEVKKPGSSVKVSCKASGGTFSTGAFTWVRQAPGQGLEWMGGIIPIFGTTNLAQNFQGRVTITADESTSTVYMELSSLRSEDTAVYYCARSSRIYDLNPSLTAYYDMDVWGQGTMVTVSS
VL: QSVLTQPPSVSAAPGQKVTISCSGSSSDIGNNYVSWYQQLPGTAPKLLIYDNNKRPSGIPDRFSGSKSGTSATLGITGLQTGDEADYYCGTWDSSLSAWVFGGGTKLTVL
B2 gave a percent remaining monomeric [2] of 99%.
